The target in the assay is recombinant trypanothione reductase from Leishmania braziliensis (Leishmania braziliensis) (UniProt A4H480).

We go through 1 substance from publication PMC11970842.

With “crotapotin from Crotalus durissus terrificus venom (natural protein)”, the IC50 of inhibition of LbTR enzymatic activity (reduction of T[S]2, DTNB-coupled, absorbance at 412 nm; 0.04 µM enzyme, crotapotin 0, 100, 150 and 200 µM, 28 °C, pH 7.5) was 224 μM.
